Measurements reported in the nanobody polyreactivity screen of Harvey et al. (2022).

Test: yeast display, Sf9 membrane polyspecificity reagent, FACS + sequencing; frameworks hold sequencing errors
How it was run: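 Synthetic nanobody libraries on Saccharomyces cerevisiae BJ5465 were galactose-induced for 36–48 hours, stained 1 hour at 4 °C with 10% biotinylated, detergent-solubilized Sf9 membrane reagent and enriched on streptavidin microbeads. FACS then separated cells into low and high (top ~1%) gates by anti-HA (expression) and streptavidin (reagent binding) fluorescence. Genes were colony-PCR amplified, MiSeq 2 × 250 sequenced and CDR-length filtered. A clone's polyreactivity label is that of its gate of origin.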

Sequence | polyreactivity (PSR sort gate)
QVQLVESGGGLVQAGGSLRLSCAASGFTFSRNTMGWYRPAPGKERELVAAIDSTGGSTYYADSVKGRFTISRDNAKNTVYLQMNSLKPEDTAVYYCATVLPDGRVWYEGYYWGQGTQVTVSS | low polyreactivity
QVQLVESGGGLVQAGGSLRLSCAASGFTFSRNVMGWYRQAPGKERELVADITLSGASTYYADSVKGRFTISRDNAKNTVYLQMNSLKPEDTADYYCAADPYHWRWGWRHDYWGQGTQVTVSS | low polyreactivity
QVQLVESGGGLVQAGGSLRLSCAASGFTFSRYAMGWYRQAPGKERELVAVISSSGSRTYYADSVKGRFTISRDNAKNTVYLQMNSLTPEDTAVYYCAAKSYTVTGYEYWGQGTQVTVSS | high polyreactivity
QVQLVESGGGLVQAGGSLRLSCAASGFTFSSNAMGSYRQAPGKERELVAAISFNSTSTYYADSVKVRFTISRDNAKNTVYLQMNSLKPEDTAVYYCAADVPRVQSEPEYDYSGQGTQVTVSS | low polyreactivity
QVQLVESGGGLVQAGGSLRLSCAASGFTFSSYAMGWSRQAPGKERELVAAISTRGGSTYYADSVKGRFTISRDNAKNTVYLQMNSLKPEDTAVYYCATGGRGGRRYEYWGQGTQVTVSS | low polyreactivity
QVQLVESGGGLVQAGGSLRLSCAASGFTFSSYAMGWYRQAPGKERELVAAISTRGGSTYYADSVKGRFTISRDNAKNTVYLQMNSLKPEDTAVYYCATGGRGGRRYEYWGQGTQVTVSS | low polyreactivity
QVQLVESGGGLVQAGGSLRLSCAASGFTFSSYAMGWYRQAPGKERELVAAISTRGGSTYYADSVKGRFTISRDNAKNTVYLQMNSLNPEDSAVYYCAAPVNTSGDEYGYWGQGTQVTVSS | low polyreactivity
QVQLVESGGGLVQAGGSLRLSCAASGFTFSSYAMGWYRQAPGKERELVAAITWGGGRTYYADSVKGRFTISRDNAKNTVYLQINSLKPEDTAVYYCNVPQWVSIWRKNNYWGLGTQVTVSS | high polyreactivity
QVQLVESGGGLVQAGGSLRLSCAASGFTFSTYAMGWYRQAPGKERELVAAISSGDSTYADSVKGRFTISRDNAKNTVYLQMNSLKPEDTAVYYCAAYVSVPYRNYYYWGQGTQVTVSS | high polyreactivity
QVQLVESGGGLVQAGGSLRLSCAASGFTFSTYAMGWYRQAPGKERELVSAISFSGGSTYYADSVKGRFTISRDNAKNTVYLQMNSLKPEDTAVYYCARAYTKYFEIYFIYALLYGHWGQGTQVTVSS | low polyreactivity
QVQLVESGGGLVQAGGSLRLSCAASGFTFSTYTMGWYRQAPGKERELVAAIRRSGDSTYYADSVKGRFTISRDNAKNTVYLQMNSLKPEDTAVYYCNAVRYRFERFDYWGQGTQVTVSS | high polyreactivity
QVQLVESGGGLVQAGGSLRLSCAASGFTFSVNDMGWYRQAPGKERELVAGISRGDNTNYADSVKGRFTISRDNAKNTVYLQMNSLKPEDTAVYYCAADFSLGLYRSWFGDYDYWGQGTQVTVSS | low polyreactivity
QVQLVESGGGLVQAGGSLRLSCAASGFTFSWYVMGWYRQAPGKERELVAAISSSGGSTYYADSVKGRFTISRDNAKNTVYLQMKSLKPEDTAVYYCSAGRPYGDGDYWGQGTQVTVSS | high polyreactivity
QVQLVESGGGLVQAGGSLRLSCAASGFTFSYNAMGWYRQAPGKERELVAAISSTGTSTYYADSVKGRFTISRDNAKNTVYLQMISLKPEDTAVYYCNAYGYDGYYAGRHGYWGQGTQVTVSS | low polyreactivity
QVQLVESGGGLVQAGGSLRLSCAASGFTFSYNAMGWYRQAPGKERELVAGISYGGGNTFYADSVKGRFTISRDNAKNTVYLQMNSLKPEDTAVYDCAAVNKSGTYVEYDYWGQGTQVTVSS | low polyreactivity
QVQLVESGGGLVQAGGSLRLSCAASGFTFSYYAMGWYRQAPGKERELVAAITTSGGRTYYADSVKGRFTISRDNAKNTVYLQMNSLKPEDPAVYYCAATYPRYYSGEFDYWGQGTQVTVSS | high polyreactivity

Sequence | polyreactivity (PSR sort gate)
QVQLVESGGGLVQAGGSLRLSCAASGFTFSYYAMGWYRQAPGKERELVARISFSGTRTYYADSVKGRFTISRDNAKNTVYLQMNSLKPEDTAVYYCAARFGYVGITARYDYWGQGTQVTVSS | high polyreactivity
QVQLVESGGGLVQAGGSLRLSCAASGFTFSYYAMGWYRQAPGKERELVASISRSGNTYYADSVKGRFTISRDNAKNTVYLQMNSLKPEDTAVYYCAAKRKSYYSYNFDYWGQGTQVTVSS | high polyreactivity
QVQLVESGGGLVQAGGSLRLSCAASGFTFTAYAMGLYRKATGKERELVAGISRRGASTYYADSVKGRFTISRDYAKNTVYLQMNSLKPEDTAVYYCAALGKYIVAWSGDYWGQGTQVTVSS | low polyreactivity
QVQLVESGGGLVQAGGSLRLSCAASGFTFTDYAMGWYRQAPGKERELVAAITKGGGRTYYADSVKGRFTISRDNAKNTVYLQMNSLKPEDTAVYYCNARYQVPYGYWGQGTQVTVSS | low polyreactivity
QVQLVESGGGLVQAGGSLRLSCAASGFTFTENVMGWYRQAPGKEREFVAAITYIGGRTYYADSVKGRFTISRDNAKNSVYLQMNSLKPEDTAVYYCAADWAYYVASYLYYTFDYWGQGTQVTVSS | low polyreactivity
QVQLVESGGGLVQAGGSLRLSCAASGFTFTENVMGWYRQAPGKEREFVAAITYIGGRTYYADSVKGRFTISRDNAKNTVYLQMNSLKPEDTAVYYCAADWAYYVASYLYYTFDYWGQGTQVTVSS | low polyreactivity
QVQLVESGGGLVQAGGSLRLSCAASGFTFTGYAMGWYRQAPGKERELVAAISSSGGSTYYADSVKGRFTISRDNAKNTVYLQMNSLKPEDTAVYYCNARISDAHYQCNYFLVLYDYWGQGTQVTVSS | low polyreactivity
QVQLVESGGGLVQAGGSLRLSCAASGFTFTIYAMGSNRPAPGKERELVATISGRAGRTYYADSVKGRFTISRDNAKNTVYLQMNSLKPEDPAVYYCTAGQRRYPGLSYYWGQGTQVTVSS | high polyreactivity
QVQLVESGGGLVQAGGSLRLSCAASGFTFTLNTMGWYRQAPGKERELVAAISSGGRTYYADSVKGRFTISRDNAKNTVYLQMNSLKPEDTAVYYCAADYTWRFLRFGYWGQGTQVTVSS | high polyreactivity
QVQLVESGGGLVQAGGSLRLSCAASGFTFTPNAMGWYRQAPGKERELVAAISGSGGSTYYADSVKGRFTISRDNAKNTVYLQMNSLKPEDTAVYYCAKRRGVYTHWYDYWGQGTQVTVSS | high polyreactivity
QVQLVESGGGLVQAGGSLRLSCAASGFTFTPYAMGWYRQAPGKERELVAAITWRGGTYYADSVKGRFTISRDNAKNTVYLQMNSLKPEDTAVYYCAARVWRLYPSTYDYWGQGTQVTVSS | high polyreactivity
QVQLVESGGGLVQAGGSLRLSCAASGFTFTPYAMGWYRQAPGKERELVATISWSGGSTYADSVKGRFTISRDNAKNTVYLQMNSLKPEDTAVYYCAADVYGVHAPQSDYWTKYDYWGQGTQVTVSS | low polyreactivity
QVQLVESGGGLVQAGGSLRLSCAASGFTFTQNAAMGWYRQAPGKERELVGAISSGGRTYFADSVKGRFTISRDNAKNTVYLQMNSLKPEDTAVYYCAAVYRRSDFRGAKDGYYYWGQGTQVTVSS | low polyreactivity
QVQLVESGGGLVQAGGSLRLSCAASGFTFTRNAMGWSRPAPGKERELVAAISKRGGTTYYADSVKGRFTISRDNAKNTVYLQMNSLKPEDTAVYYCAKDGGITGGYWGQGTQVSVSS | high polyreactivity
QVQLVESGGGLVQAGGSLRLSCAASGFTFTRYAMGWYRQAPGKERELVAAISSSGGSTYYADSVKGRFTISRDNAKNTVYLQMNSLKPEDTAVYYCNKNWPRLYYYWGQGTQVTVSS | high polyreactivity
